According to publication PMC6018666, “Structural basis for terminal loop recognition and stimulation of pri-miRNA-18a processing by hnRNP A1”:

How the values were obtained:
UP1 (hnRNP A1 RRM1-RRM2) [1] = target: T1, UP1 (hnRNP A1 RRM1-RRM2) (UniProt P09651 1-196); experiment: ITC; N=1.35; ITC: 20 mM Na phosphate pH 6.5, 100 mM NaCl, no DTT, 25 C; EMSA: 100 mM KCl, 20% glycerol, 0.2 mM EDTA, 100 mM Tris pH 8.0, 0.5 mM DTT, 0.5 mM ATP, 20 mM creatine phosphate, 3.2 mM MgCl2, 4 C; footprint: 12 mM Tris-HCl pH 7.5, 48 mM NaCl, 1.2 mM MgCl2, 37 C; details: protein: recombinant; tags: His tag removed by TEV; hairpin
T1 sequence (P09651 1-196): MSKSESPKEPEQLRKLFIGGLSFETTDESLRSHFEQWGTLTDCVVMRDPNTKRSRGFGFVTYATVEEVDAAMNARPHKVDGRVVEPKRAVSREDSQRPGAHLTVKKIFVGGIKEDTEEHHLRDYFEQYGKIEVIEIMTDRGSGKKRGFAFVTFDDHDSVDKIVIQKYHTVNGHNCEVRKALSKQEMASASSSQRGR

UP1(R75E/R88E) = UP1(R75E/R88E) (UniProt P09651 1-196, R75E;R88E); experiment: ITC; N=1.1; ITC: 20 mM Na phosphate pH 6.5, 100 mM NaCl, no DTT, 25 C; EMSA: 100 mM KCl, 20% glycerol, 0.2 mM EDTA, 100 mM Tris pH 8.0, 0.5 mM DTT, 0.5 mM ATP, 20 mM creatine phosphate, 3.2 mM MgCl2, 4 C; footprint: 12 mM Tris-HCl pH 7.5, 48 mM NaCl, 1.2 mM MgCl2, 37 C; details: protein: recombinant; tags: His tag removed by TEV; single strand
UP1(R75E/R88E), sequence (P09651 1-196 R75E/R88E): as the sequence (P09651 1-196) above, with R75E, R88E counted along it

UP1(R75E/R88A) = UP1(R75E/R88A) (UniProt P09651 1-196, R75E;R88A); experiment: ITC; N=1.08; ITC: 20 mM Na phosphate pH 6.5, 100 mM NaCl, no DTT, 25 C; EMSA: 100 mM KCl, 20% glycerol, 0.2 mM EDTA, 100 mM Tris pH 8.0, 0.5 mM DTT, 0.5 mM ATP, 20 mM creatine phosphate, 3.2 mM MgCl2, 4 C; footprint: 12 mM Tris-HCl pH 7.5, 48 mM NaCl, 1.2 mM MgCl2, 37 C; details: protein: recombinant; tags: His tag removed by TEV; single strand
UP1(R75E/R88A), sequence (P09651 1-196 R75E/R88A): as the sequence (P09651 1-196) above, with R75E, R88A counted along it

UP1 (hnRNP A1 RRM1-RRM2) [2] = target: T1, UP1 (hnRNP A1 RRM1-RRM2); experiment: ITC; N=1.01; ITC: 20 mM Na phosphate pH 6.5, 100 mM NaCl, no DTT, 25 C; EMSA: 100 mM KCl, 20% glycerol, 0.2 mM EDTA, 100 mM Tris pH 8.0, 0.5 mM DTT, 0.5 mM ATP, 20 mM creatine phosphate, 3.2 mM MgCl2, 4 C; footprint: 12 mM Tris-HCl pH 7.5, 48 mM NaCl, 1.2 mM MgCl2, 37 C; details: protein: recombinant; tags: His tag removed by TEV; single strand
UP1 (hnRNP A1 RRM1-RRM2) [3] = target: T1, UP1 (hnRNP A1 RRM1-RRM2); experiment: ITC; N=0.98; ITC: 20 mM Na phosphate pH 6.5, 100 mM NaCl, no DTT, 25 C; EMSA: 100 mM KCl, 20% glycerol, 0.2 mM EDTA, 100 mM Tris pH 8.0, 0.5 mM DTT, 0.5 mM ATP, 20 mM creatine phosphate, 3.2 mM MgCl2, 4 C; footprint: 12 mM Tris-HCl pH 7.5, 48 mM NaCl, 1.2 mM MgCl2, 37 C; details: protein: recombinant; tags: His tag removed by TEV; single strand
UP1 (hnRNP A1 RRM1-RRM2) [4] = target: T1, UP1 (hnRNP A1 RRM1-RRM2); experiment: ITC; N=1.07; ITC: 20 mM Na phosphate pH 6.5, 100 mM NaCl, no DTT, 25 C; EMSA: 100 mM KCl, 20% glycerol, 0.2 mM EDTA, 100 mM Tris pH 8.0, 0.5 mM DTT, 0.5 mM ATP, 20 mM creatine phosphate, 3.2 mM MgCl2, 4 C; footprint: 12 mM Tris-HCl pH 7.5, 48 mM NaCl, 1.2 mM MgCl2, 37 C; details: protein: recombinant, tags: His tag removed by TEV
UP1 (hnRNP A1 RRM1-RRM2) [5] = target: T1, UP1 (hnRNP A1 RRM1-RRM2); experiment: ITC; not fitted by one-site model; ITC: 20 mM Na phosphate pH 6.5, 100 mM NaCl, no DTT, 25 C; EMSA: 100 mM KCl, 20% glycerol, 0.2 mM EDTA, 100 mM Tris pH 8.0, 0.5 mM DTT, 0.5 mM ATP, 20 mM creatine phosphate, 3.2 mM MgCl2, 4 C; footprint: 12 mM Tris-HCl pH 7.5, 48 mM NaCl, 1.2 mM MgCl2, 37 C; details: protein: recombinant; tags: His tag removed by TEV; hairpin
UP1 (hnRNP A1 RRM1-RRM2) [6] = target: T1, UP1 (hnRNP A1 RRM1-RRM2); experiment: ITC; N=0.75; ITC: 20 mM Na phosphate pH 6.5, 100 mM NaCl, no DTT, 25 C; EMSA: 100 mM KCl, 20% glycerol, 0.2 mM EDTA, 100 mM Tris pH 8.0, 0.5 mM DTT, 0.5 mM ATP, 20 mM creatine phosphate, 3.2 mM MgCl2, 4 C; footprint: 12 mM Tris-HCl pH 7.5, 48 mM NaCl, 1.2 mM MgCl2, 37 C; details: protein: recombinant; tags: His tag removed by TEV; single strand
hnRNP A1 RRM2 [7] = target: T2, hnRNP A1 RRM2 (UniProt P09651 94-196); experiment: ITC; N=1.09; text gives 6.9; ITC: 20 mM Na phosphate pH 6.5, 100 mM NaCl, no DTT, 25 C; EMSA: 100 mM KCl, 20% glycerol, 0.2 mM EDTA, 100 mM Tris pH 8.0, 0.5 mM DTT, 0.5 mM ATP, 20 mM creatine phosphate, 3.2 mM MgCl2, 4 C; footprint: 12 mM Tris-HCl pH 7.5, 48 mM NaCl, 1.2 mM MgCl2, 37 C; details: protein: recombinant; tags: His tag removed by TEV; single strand
T2 sequence (P09651 94-196): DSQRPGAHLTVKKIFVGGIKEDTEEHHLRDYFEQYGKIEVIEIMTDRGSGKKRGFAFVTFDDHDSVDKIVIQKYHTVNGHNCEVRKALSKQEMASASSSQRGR

hnRNP A1 RRM1 [8] = target: T3, hnRNP A1 RRM1 (UniProt P09651 1-97); experiment: ITC; N=1.01; ITC: 20 mM Na phosphate pH 6.5, 100 mM NaCl, no DTT, 25 C; EMSA: 100 mM KCl, 20% glycerol, 0.2 mM EDTA, 100 mM Tris pH 8.0, 0.5 mM DTT, 0.5 mM ATP, 20 mM creatine phosphate, 3.2 mM MgCl2, 4 C; footprint: 12 mM Tris-HCl pH 7.5, 48 mM NaCl, 1.2 mM MgCl2, 37 C; details: protein: recombinant; tags: His tag removed by TEV; single strand
T3 sequence (P09651 1-97): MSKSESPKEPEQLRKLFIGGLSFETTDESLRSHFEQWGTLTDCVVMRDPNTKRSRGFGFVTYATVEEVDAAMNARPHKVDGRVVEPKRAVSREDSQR

hnRNP A1 RRM2 [9] = target: T2, hnRNP A1 RRM2; experiment: EMSA; ITC: 20 mM Na phosphate pH 6.5, 100 mM NaCl, no DTT, 25 C; EMSA: 100 mM KCl, 20% glycerol, 0.2 mM EDTA, 100 mM Tris pH 8.0, 0.5 mM DTT, 0.5 mM ATP, 20 mM creatine phosphate, 3.2 mM MgCl2, 4 C; footprint: 12 mM Tris-HCl pH 7.5, 48 mM NaCl, 1.2 mM MgCl2, 37 C; details: protein: recombinant; tags: His tag removed by TEV; label: internal radiolabel
hnRNP A1 RRM1 [10] = target: T3, hnRNP A1 RRM1; experiment: as above; details: protein: recombinant; tags: His tag removed by TEV; label: internal radiolabel
UP1 (hnRNP A1 RRM1-RRM2) [11] = target: T1, UP1 (hnRNP A1 RRM1-RRM2); experiment: as above; details: protein: recombinant; tags: His tag removed by TEV; label: internal radiolabel
UP1 (hnRNP A1 RRM1-RRM2) [12] = target: T1, UP1 (hnRNP A1 RRM1-RRM2); experiment: ITC; N=1.08; ITC: 20 mM Na phosphate pH 6.5, 100 mM NaCl, no DTT, 25 C; EMSA: 100 mM KCl, 20% glycerol, 0.2 mM EDTA, 100 mM Tris pH 8.0, 0.5 mM DTT, 0.5 mM ATP, 20 mM creatine phosphate, 3.2 mM MgCl2, 4 C; footprint: 12 mM Tris-HCl pH 7.5, 48 mM NaCl, 1.2 mM MgCl2, 37 C; details: protein: recombinant; tags: His tag removed by TEV; single strand
UP1 (hnRNP A1 RRM1-RRM2) [13] = target: T1, UP1 (hnRNP A1 RRM1-RRM2); experiment: ITC; N=1.06; ITC: 20 mM Na phosphate pH 6.5, 100 mM NaCl, no DTT, 25 C; EMSA: 100 mM KCl, 20% glycerol, 0.2 mM EDTA, 100 mM Tris pH 8.0, 0.5 mM DTT, 0.5 mM ATP, 20 mM creatine phosphate, 3.2 mM MgCl2, 4 C; footprint: 12 mM Tris-HCl pH 7.5, 48 mM NaCl, 1.2 mM MgCl2, 37 C; details: protein: recombinant; tags: His tag removed by TEV; single strand

B1: pri-mir-18a 71-mer (structured_RNA)
RNA: GGUUCUAAGGUGCAUCUAGUGCAGAUAGUGAAGUAGAUUAGCAUCUACUGCCCUAAGUGCUCCUUCUGGCC
**Q.** With B1 as the binder, how does the Kd (UP1 (hnRNP A1 RRM1-RRM2) [1]) read?
**A.** 148 ± 8.9 nM

**Q.** How did the Kd (UP1(R75E/R88E)) turn out when AGUAGAUUAGCA (ssRNA) [12-mer] was run?
**A.** 40.1 ± 4.4 nM

**Q.** And the Kd (UP1(R75E/R88A))?
**A.** 19 ± 2.05 nM

**Q.** What about the Kd (UP1 (hnRNP A1 RRM1-RRM2) [2]) of the same binder?
**A.** 15.5 ± 3.4 nM

**Q.** With UUUAGAUUAGCA (ssRNA) [12-mer-mut3] as the binder, how does the Kd (UP1 (hnRNP A1 RRM1-RRM2) [3]) read?
**A.** 8.33 ± 1.35 nM

**Q.** For GGUGAAGUAGAUUCGCC (structured_RNA) [17-mer(A35C)], which Kd (UP1 (hnRNP A1 RRM1-RRM2) [4]; hairpin) is on record?
**A.** 3100 ± 190 nM

**Q.** Does GGUGAAGUAGAUUAGCC (structured_RNA) [17-mer] bind (UP1 (hnRNP A1 RRM1-RRM2) [5])?
**A.** binds

**Q.** UAGAUUAGCA (ssRNA) [10-mer] was tested. Which Kd (UP1 (hnRNP A1 RRM1-RRM2) [4]; single strand) did it give?
**A.** 19.1 ± 6.73 nM

**Q.** What does the source list for AGUAGAU (ssRNA) [7-mer]?
**A.** Kd (UP1 (hnRNP A1 RRM1-RRM2) [6]): 3400 ± 120 nM; Kd (hnRNP A1 RRM2 [7]): 6800 ± 140 nM; Kd (hnRNP A1 RRM1 [8]): 20400 ± 1060 nM

**Q.** Does GUGAAGUAGAUUAGC (structured_RNA) [pri-mir-18a terminal loop RNA] bind (hnRNP A1 RRM2 [9])?
**A.** no binding

**Q.** Does GUGAAGUAGAUUAGC (structured_RNA) [pri-mir-18a terminal loop RNA] bind (hnRNP A1 RRM1 [10])?
**A.** no binding

**Q.** Does GUGAAGUAGAUUAGC (structured_RNA) [pri-mir-18a terminal loop RNA] bind (UP1 (hnRNP A1 RRM1-RRM2) [11])?
**A.** binds

**Q.** Which Kd (UP1 (hnRNP A1 RRM1-RRM2) [12]) does the source give for AGUAGAUUUUCA (ssRNA) [12-mer-mut2] here?
**A.** 330 ± 26.5 nM

**Q.** With AGUUUAUUAGCA (ssRNA) [12-mer-mut1] as the binder, how does the Kd (UP1 (hnRNP A1 RRM1-RRM2) [13]) read?
**A.** 154 ± 11 nM
